PMC7900517, “PIP2 promotes conformation-specific dimerization of the EphA2 membrane region” (The Journal of Biological Chemistry, 2020)
Ends that are not written are not given here. Alexa Fluor 488 = fluorescent dye attached through a C5 maleimide linker to the added cysteine

How the values were obtained:
[1] = biological target: the molecule itself; test: single-molecule photobleaching (TIRF) in SMALPs; Alexa Fluor 488-TMJM in 22:1 PC or 14:1 PC SMALPs with 3% biotin-PE, ± 3% PIP2 or 10% POPS, ± 1 mM Ca2+; lipid-to-peptide ratio 300:1; SMALPs (20 to 30 nM peptide) immobilised on PEGylated slides via biotin-streptavidin; SMALP buffer 19.3 mM HEPES, 150 mM NaCl, 1 mM EGTA; photobleaching steps counted for each SMALP
[2] = biological target: the molecule itself; test: cross-linking; disulfide cross-linking through the C-terminal Cys; unlabeled TMJM in 14:1 PC or 22:1 PC liposomes ± 3% PIP2, lipid-to-peptide ratio 300:1; 19.3 mM HEPES, 1 mM EGTA, shaken 3 h at room temperature (19-21 °C); non-reducing SDS-PAGE (16% tricine gel), silver stain

B1: TMJM peptide labeled with Alexa Fluor 488 (peptide)
peptide: GSGNLAVIGGVAVGVVLLLVLAGVGFFIHRRRKC(Alexa Fluor 488)WN
modifications: also: Alexa Fluor 488 (C5 maleimide) on the added C-terminal cysteine
notes: EphA2 residues 531 to 563: a short stretch of extracellular residues, the TMD and the first five JM residues (HRRRK); added residues at the C terminus: a cysteine for dye conjugation and a tryptophan as fluorescent reporter; Reconstituted in 14:1 PC or 22:1 PC bilayers with 3% biotin-PE and solubilised as SMALPs; also called Alexa Fluor 488 labeled TMJM peptide; source: synthetic peptide (F-moc …)
stoichiometry N [1]: 2

B2: TMJM peptide (unlabeled) (peptide)
peptide: GSGNLAVIGGVAVGVVLLLVLAGVGFFIHRRRKCWN
notes: EphA2 residues 531 to 563: a short stretch of extracellular residues, the TMD and the first five JM residues (HRRRK); added residues at the C terminus; the free cysteine forms the disulfide in the cross-linking experiment; Free Cys at the JM end; also called unlabeled TMJM; source: synthetic peptide (F-moc chemistry, Thermo Fisher)
binding result [2]: binds
